Assay results published in the PETadex activity labels (doi:10.1038/s41467-023-40233-w).

B1: unnamed (protein)
chain: MLSFLRSTGRPERRRASLPALLLFTAALVASGLTAAPAAQAADNPYQRGPDPTNASIEAATGPFAVGTQPIVGASGFGGGQIYYPTDTSQTYGAVVIVPGFISVWAQLNWLGPRLASQGFVVIGIETSVITDLPDPRGDQALAALDWATTRSPVASRIDRTRLAAAGWSMGGGGLRRAACQRPSLKAIVGMAPWNGERNWSCVTVPTLFFGGSSDAVASPNDHAKPFYNSITRAEKDYIELCNADHFFPTSANTTMAKYFISWLKRWVDNDTRYTQFLCPGPSTGLFAPVCASMNTCPF
B2: unnamed (protein)
chain: MLSFLRSTGRPERRRASLPALLLFTAALVASGLTAAPAAQAADNPYQRGPDPTNASIEAATGPFAVGTQPIVGASGFGGGQIYYPTDTSQTYGAVVIVPGFISVWAQLNWLGPRLASQGFVVIGIETSVITDLPDPRGDQALAALDWATTRSPVASRIDATRLAAAGWSMGGGGLRRAALQRPSLKAIVGMAPWNGERNWSAVTVPTLFFGGSSDAVASPNDHAKPFYNSITRAEKDYIELRNADHFFPTSANTTMAKYFISWLKRWVDNDTRYTQFLCPGPSTGLFAPVSASMNTCPF
B3: unnamed (protein)
chain: MLSFLRSTGRPERRRASLPALLLFTAALVASGLTAAPAAQAADNPYQRGPDPTNASIEAATGPFAVGTQPIVGASGFGGGQIYYPTDTSQTYGAVVIVPGFTSVWAQLNWLGPRLASQGFVVIGIETSVITDLPDPRGDQALAALDWATTRSPVASRIDRTRLAAAGWSMGGGGLRRAALQRPSLKAIVGMAPWNGERNWSAVTVPTLFFGGSSDAVASPNDHAKPFYNSITRAEKDYIELRNADHFFPTSANTTMAKYFISWLKRWVDNDTRYTQFLCPGPSTGLFAPVSASMNTCPF
B4: unnamed (protein)
chain: MLSFLRSTGRPERRRASLPALLLFTAALVASGLTAAPAAQAADNPYQRGPDPTNASIEAATGPFAVGTQPIVGASGFGGGQIYYPTDTSQTYGAVVIVPGFISVWAQLAWLGPRLASQGFVVIGIETSVITDLPDPRGDQALAALDWATTRSPVASRIDRTRLAAAGWSMGGGGLRRAACQRPSLKAIVGMAPWNGERNWSCVTVPTLFFGGSSDAVASPNDHAKPFYNSITRAEKDYIELCNADHFFPTSANTTMAKYFISWLKRWVDNDTRYTQFLCPGPSTGLFAPVCASMNTCPF
B5: unnamed (protein)
chain: MLSFLRSTGRPERRRASLPALLLFTAALVASGLTAAPAAQAADNPYQRGPDPTNASIEAATGPFAVGTQPIVGASGFGGGQIYYPTDTSQTYGAVVIVPGFISVWAQLNWLGPRLASQGFVVIGIETSVITDLPDPRGDQALAALDWATTRSPVASRIDRTRLAAAGWSMGGGGLRRAALQRPSLKAIVGMAPWNGERNWSAVCVPTLFFGGSSDAVASPNDHAKPFYNSITCAEKDYIELRNADHFFPTSANTTMAKYFISWLKRWVDNDTRYTQFLCPGPSTGLFAPVSASMNTCPF
B6: unnamed (protein)
chain: MLSFLRSTGRPERRRASLPALLLFTAALVASGLTAAPAAQAADNPYQRGPDPTNASIEAATGPFAVGTQPIVGASGFGGGQIYYPTDTSQTYGAVVIVPGFISVWAQLNWLGPRLASQGFVVIGIETSVITDQPDPRGDQALAALDWATTRSPVASRIDRTRLAAAGWSMGGGGLRRAALQRPSLKAIVGMAPWNGERNWSAVTVPTLFFGGSSDAVASPNDHAKPFYNSITRAEKDYIELRNADHFFPTSANTTMAKYFISWLKRWVDNDTRYTQFLCPGPSTGLFAPVSASMNTCPF
B7: unnamed (protein)
chain: MLSFLRSTGRPERRRASLPALLLFTAALVASGLTAAPAAQAADNPYQRGPDPTNASIEAATGPFAVGTQPIVGASGFGGGQIYYPTDTSQTYGAVVIVPGFISVWAQLNWLGPRLASQGFVVIGIETSVITDLPDPRGDQALAALDWATTRSPVASRIDRTRLAAAGWSMGGGGLRRAALQRPSLKAIVGMAPWNGERNWSAVTVPTLFFGGSSDAVASPNDHAKPFYNSITRAEKDYIELRNADHFFPTSANTTMAKYFISWLKRWVDNDTRYTQFLCPGPSTGLFAPVSASRNTCPF
B8: unnamed (protein)
chain: MLSFLRSTGRPERRRASLPALLLFTAALVASGLTAAPAAQAADNPYQRGPDPTNASIEAATGPFAVGTQPIVGASGFGGGQIYYPTDTSQTYGAVVIVPGFISVWAQLAWLGPRLASQGFVVIGIETSTITDLPDPRGDQALAALDWATTRSPVRSRIDRTRLAAAGWSMGGGGLRRAACQRPSLKAIVGMAPWNGEKNWSCVTVPTLFFGGSSDAVASPNDHAKPFYNSITRAEKDYIELCNADHFFPTSANTTMAKYFISWLKRWVDNDTRYTQFLCPGPSTGLFAPVCASMNTCPF

The proteins below were run on pcPET (post-consumer) (assay: Proxy for plastic degradation [Released monomer concentration (HPLC/LC-MS) (TPA+MHET+BHET)]). Conditions: pH 9; 40 °C; 24 h.
For B1, the “Proxy for plastic degradation” value was 948 µM. In the case of B2, the “Proxy for plastic degradation” value is reported as 680 µM. In the case of B3, the “Proxy for plastic degradation” value is reported as 560 µM. In the case of B4, the “Proxy for plastic degradation” value is reported as 1080 µM. In the case of B5, the “Proxy for plastic degradation” value is reported as 590 µM. In the case of B6, the “Proxy for plastic degradation” value is reported as 470 µM. B7 was tested, and the “Proxy for plastic degradation” value was 310 µM. B8 was tested, and the “Proxy for plastic degradation” value was 1250 µM.

Same assay, conditions: pH 9; 60 °C; 6 h
B1 was tested, and the “Proxy for plastic degradation” value was 270 µM. B4 was tested, and the “Proxy for plastic degradation” value was 420 µM. B8 was tested, and the “Proxy for plastic degradation” value was 1560 µM.
